Source: article PMC9769556

B1: RecA of Deinococcus radiodurans (DrRecA), purified (natural protein)
chain: MSKDATKEISAPTDAKERSKAIETAMSQIEKAFGKGSIMKLGAESKLDVQVVSTGSLSLDLALGVGGIPRGRITEIYGPESGGKTTLALAIVAQAQKAGGTCAFIDAEHALDPVYARALGVNTDELLVSQPDNGEQALEIMELLVRSGAIDVVVVDSVAALTPRAEIEGDMGDSLPGLQARLMSQALRKLTAILSKTGTAAIFINQVREKIGVMYGNPETTTGGRALKFYASVRLDVRKIGQPTKVGNDAVANTVKIKTVKNKVAAPFKEVELALVYGKGFDQLSDLVGLAADMDIIKKAGSFYSYGDERIGQGKEKTIAYIAERPEMEQEIRDRVMAAIRAGNAGEAPALAPAPAAPEAAEA

Experiments:
[1] = system: DrDprA (Deinococcus radiodurans R1 (ATCC 13939)); test: EMSA; conditions: EMSA: 10 mM Tris-HCl pH 7.5, 50 mM NaCl, 1 mM DTT, 10 min at 37 C, 2 nM 32P probe
[2] = target: DNA processing protein A of Deinococcus radiodurans (DrDprA), purified recombinant wild type (D. radiodurans); test: SPR; 2.5 uM DrDprA immobilised on a bare gold sensor chip by EDC-NHS chemistry at 20 C (Autolab Esprit); DrRecA 0.5 to 3 uM in the mobile phase, 20 mM Tris pH 7.6, 1 mM MgCl2

Row | Molecule | Kd [1] | Kd [2]
1 | 167-bp dsDNA | 3.53 µM | –
2 | 167-mer ssDNA | 3.04 µM | –
3 | B1 | – | 0.293 µM
